Measured values as given in paper PMC10786891, “Massively parallel profiling of RNA-targeting CRISPR-Cas13d”.

T1: EsCas13d, nuclease-dead (Eubacterium siraeum, UniProt B0MS50, R295A;H300A;R849A;H854A)
T1 sequence: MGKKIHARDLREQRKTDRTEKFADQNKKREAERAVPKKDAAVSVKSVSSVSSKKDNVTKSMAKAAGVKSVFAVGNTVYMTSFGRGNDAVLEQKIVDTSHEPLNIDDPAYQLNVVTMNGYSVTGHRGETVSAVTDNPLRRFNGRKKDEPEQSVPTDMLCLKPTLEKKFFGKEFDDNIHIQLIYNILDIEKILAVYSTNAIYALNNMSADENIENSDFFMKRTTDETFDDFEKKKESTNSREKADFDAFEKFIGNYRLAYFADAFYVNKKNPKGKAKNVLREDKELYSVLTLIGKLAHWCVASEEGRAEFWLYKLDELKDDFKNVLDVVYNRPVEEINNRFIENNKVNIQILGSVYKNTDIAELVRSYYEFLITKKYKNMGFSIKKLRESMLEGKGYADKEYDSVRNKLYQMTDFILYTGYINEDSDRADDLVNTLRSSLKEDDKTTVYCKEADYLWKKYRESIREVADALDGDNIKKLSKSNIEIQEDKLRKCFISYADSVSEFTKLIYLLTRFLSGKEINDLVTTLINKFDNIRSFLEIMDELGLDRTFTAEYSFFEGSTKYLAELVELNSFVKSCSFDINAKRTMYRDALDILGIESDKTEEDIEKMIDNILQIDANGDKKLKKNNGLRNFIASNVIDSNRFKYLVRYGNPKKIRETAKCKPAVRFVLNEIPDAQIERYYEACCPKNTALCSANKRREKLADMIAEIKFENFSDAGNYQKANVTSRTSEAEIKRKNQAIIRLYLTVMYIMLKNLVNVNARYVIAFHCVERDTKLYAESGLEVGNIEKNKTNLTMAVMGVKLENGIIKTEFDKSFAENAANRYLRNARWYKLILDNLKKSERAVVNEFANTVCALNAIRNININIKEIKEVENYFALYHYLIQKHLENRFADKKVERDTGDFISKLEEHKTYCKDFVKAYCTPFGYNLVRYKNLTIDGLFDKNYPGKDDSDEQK


Target: T1, EsCas13d, nuclease-dead
Experiment: crRNA (strand 1, pre-loaded); Mg2+; 40 mM Tris-HCl pH 7.5, 150 mM NaCl, 6 mM MgCl2, 1 mM DTT, 0.1% Tween-20, 0.2 mg/ml BSA; 25 C; 10 min per concentration, then washed
Conditions: tags: His6-TwinStrep-SUMO cleaved; N-terminal SNAP kept (SNAP-Surface 488); label: 3' end held by stalled T7 RNA polymerase

Binder	Kd
target 1 C6U,G12C (mixed) RNA 1: CACCCGUGCAAAAAUGCAGGGGUCUAAAACUGAGCGGAUAACCUCUCUAUGG RNA 2: GGGAAUGGAUCCACAUCUACGAAUUCGUACCAUAGAGAGCUUAUCUGCUCACCGAGAUCGGAAGAGCACACGU	12.9 ± 1.1 nM
target 1 MT 5'PFS AAU 3'PFS UUG (mixed) RNA 1: CACCCGUGCAAAAAUGCAGGGGUCUAAAACUGAGCGGAUAACCUCUCUAUGG RNA 2: GGGAAUGGAUCCACAUCUACGAAUUCAAUCCAUAGAGAGGUUAUCCGCUCAUUGAGAUCGGAAGAGCACACGU	72 ± 26 nM
target 1 MT 5'PFS CAC 3'PFS UCC (mixed) RNA 1: CACCCGUGCAAAAAUGCAGGGGUCUAAAACUGAGCGGAUAACCUCUCUAUGG RNA 2: GGGAAUGGAUCCACAUCUACGAAUUCCACCCAUAGAGAGGUUAUCCGCUCAUCCAGAUCGGAAGAGCACACGU	20.5 ± 6.5 nM
target 1 MT 5'PFS CUA 3'PFS UUC (mixed) RNA 1: CACCCGUGCAAAAAUGCAGGGGUCUAAAACUGAGCGGAUAACCUCUCUAUGG RNA 2: GGGAAUGGAUCCACAUCUACGAAUUCCUACCAUAGAGAGGUUAUCCGCUCAUUCAGAUCGGAAGAGCACACGU	6.85 ± 2.1 nM
target 1 insU 3' of 12,insU 3' of 6 (mixed) RNA 1: CACCCGUGCAAAAAUGCAGGGGUCUAAAACUGAGCGGAUAACCUCUCUAUGG RNA 2: GGGAAUGGAUCCACAUCUACGAAUUCGUACCAUAGAGAGGUUUAUCCUGCUCACCGAGAUCGGAAGAGCACACGU	9.5 ± 0.4 nM
target 1 MT 5'PFS GUA 3'PFS AUG (mixed) RNA 1: CACCCGUGCAAAAAUGCAGGGGUCUAAAACUGAGCGGAUAACCUCUCUAUGG RNA 2: GGGAAUGGAUCCACAUCUACGAAUUCGUACCAUAGAGAGGUUAUCCGCUCAAUGAGAUCGGAAGAGCACACGU	14 ± 0.85 nM
target 1 MT 5'PFS ACG 3'PFS UCC (mixed) RNA 1: CACCCGUGCAAAAAUGCAGGGGUCUAAAACUGAGCGGAUAACCUCUCUAUGG RNA 2: GGGAAUGGAUCCACAUCUACGAAUUCACGCCAUAGAGAGGUUAUCCGCUCAUCCAGAUCGGAAGAGCACACGU	~31 nM
target 1 MT 5'PFS GUG 3'PFS UCG (mixed) RNA 1: CACCCGUGCAAAAAUGCAGGGGUCUAAAACUGAGCGGAUAACCUCUCUAUGG RNA 2: GGGAAUGGAUCCACAUCUACGAAUUCGUGCCAUAGAGAGGUUAUCCGCUCAUCGAGAUCGGAAGAGCACACGU	10.5 ± 0.62 nM
target 1 MT 5'PFS CAG 3'PFS UAU (mixed) RNA 1: CACCCGUGCAAAAAUGCAGGGGUCUAAAACUGAGCGGAUAACCUCUCUAUGG RNA 2: GGGAAUGGAUCCACAUCUACGAAUUCCAGCCAUAGAGAGGUUAUCCGCUCAUAUAGAUCGGAAGAGCACACGU	51.5 ± 21 nM
target 1 MT 5'PFS GGU 3'PFS ACU (mixed) RNA 1: CACCCGUGCAAAAAUGCAGGGGUCUAAAACUGAGCGGAUAACCUCUCUAUGG RNA 2: GGGAAUGGAUCCACAUCUACGAAUUCGGUCCAUAGAGAGGUUAUCCGCUCAACUAGAUCGGAAGAGCACACGU	~63 nM
target 1 MT 5'PFS AGA 3'PFS UUU (mixed) RNA 1: CACCCGUGCAAAAAUGCAGGGGUCUAAAACUGAGCGGAUAACCUCUCUAUGG RNA 2: GGGAAUGGAUCCACAUCUACGAAUUCAGACCAUAGAGAGGUUAUCCGCUCAUUUAGAUCGGAAGAGCACACGU	27.5 ± 11 nM
target 1 MT 5'PFS AAU 3'PFS UUC (mixed) RNA 1: CACCCGUGCAAAAAUGCAGGGGUCUAAAACUGAGCGGAUAACCUCUCUAUGG RNA 2: GGGAAUGGAUCCACAUCUACGAAUUCAAUCCAUAGAGAGGUUAUCCGCUCAUUCAGAUCGGAAGAGCACACGU	20 ± 5.5 nM
target 1 MT 5'PFS CUA 3'PFS UUG (mixed) RNA 1: CACCCGUGCAAAAAUGCAGGGGUCUAAAACUGAGCGGAUAACCUCUCUAUGG RNA 2: GGGAAUGGAUCCACAUCUACGAAUUCCUACCAUAGAGAGGUUAUCCGCUCAUUGAGAUCGGAAGAGCACACGU	5.7 ± 0.65 nM
target 1 MT 5'PFS GUG 3'PFS UCU (mixed) RNA 1: CACCCGUGCAAAAAUGCAGGGGUCUAAAACUGAGCGGAUAACCUCUCUAUGG RNA 2: GGGAAUGGAUCCACAUCUACGAAUUCGUGCCAUAGAGAGGUUAUCCGCUCAUCUAGAUCGGAAGAGCACACGU	10.3 ± 0.7 nM
target 1 MT 5'PFS CAG 3'PFS UAC (mixed) RNA 1: CACCCGUGCAAAAAUGCAGGGGUCUAAAACUGAGCGGAUAACCUCUCUAUGG RNA 2: GGGAAUGGAUCCACAUCUACGAAUUCCAGCCAUAGAGAGGUUAUCCGCUCAUACAGAUCGGAAGAGCACACGU	11.9 ± 4 nM
target 1 MT 5'PFS UAC 3'PFS UUG (mixed) RNA 1: CACCCGUGCAAAAAUGCAGGGGUCUAAAACUGAGCGGAUAACCUCUCUAUGG RNA 2: GGGAAUGGAUCCACAUCUACGAAUUCUACCCAUAGAGAGGUUAUCCGCUCAUUGAGAUCGGAAGAGCACACGU	7.55 ± 1.15 nM
target 1 MT 5'PFS CUU 3'PFS UUG (mixed) RNA 1: CACCCGUGCAAAAAUGCAGGGGUCUAAAACUGAGCGGAUAACCUCUCUAUGG RNA 2: GGGAAUGGAUCCACAUCUACGAAUUCCUUCCAUAGAGAGGUUAUCCGCUCAUUGAGAUCGGAAGAGCACACGU	29.5 ± 7.5 nM
target 1 MT 5'PFS ACG 3'PFS UCG (mixed) RNA 1: CACCCGUGCAAAAAUGCAGGGGUCUAAAACUGAGCGGAUAACCUCUCUAUGG RNA 2: GGGAAUGGAUCCACAUCUACGAAUUCACGCCAUAGAGAGGUUAUCCGCUCAUCGAGAUCGGAAGAGCACACGU	24 ± 6 nM
target 1 MT 5'PFS CAC 3'PFS UCG (mixed) RNA 1: CACCCGUGCAAAAAUGCAGGGGUCUAAAACUGAGCGGAUAACCUCUCUAUGG RNA 2: GGGAAUGGAUCCACAUCUACGAAUUCCACCCAUAGAGAGGUUAUCCGCUCAUCGAGAUCGGAAGAGCACACGU	8.65 ± 3.7 nM
target 1 MT 5'PFS CUU 3'PFS UUC (mixed) RNA 1: CACCCGUGCAAAAAUGCAGGGGUCUAAAACUGAGCGGAUAACCUCUCUAUGG RNA 2: GGGAAUGGAUCCACAUCUACGAAUUCCUUCCAUAGAGAGGUUAUCCGCUCAUUCAGAUCGGAAGAGCACACGU	14.2 ± 2.55 nM
target 1 MT 5'PFS AGA 3'PFS UUG (mixed) RNA 1: CACCCGUGCAAAAAUGCAGGGGUCUAAAACUGAGCGGAUAACCUCUCUAUGG RNA 2: GGGAAUGGAUCCACAUCUACGAAUUCAGACCAUAGAGAGGUUAUCCGCUCAUUGAGAUCGGAAGAGCACACGU	50 ± 18 nM
target 1 MT 5'PFS AGA 3'PFS UUC (mixed) RNA 1: CACCCGUGCAAAAAUGCAGGGGUCUAAAACUGAGCGGAUAACCUCUCUAUGG RNA 2: GGGAAUGGAUCCACAUCUACGAAUUCAGACCAUAGAGAGGUUAUCCGCUCAUUCAGAUCGGAAGAGCACACGU	~22 nM
target 1 U8A,U19C (mixed) RNA 1: CACCCGUGCAAAAAUGCAGGGGUCUAAAACUGAGCGGAUAACCUCUCUAUGG RNA 2: GGGAAUGGAUCCACAUCUACGAAUUCGUACCACAGAGAGGUUAACCGCUCACCGAGAUCGGAAGAGCACACGU	56 ± 9 nM
target 1 MT 5'PFS GUG 3'PFS UCC (mixed) RNA 1: CACCCGUGCAAAAAUGCAGGGGUCUAAAACUGAGCGGAUAACCUCUCUAUGG RNA 2: GGGAAUGGAUCCACAUCUACGAAUUCGUGCCAUAGAGAGGUUAUCCGCUCAUCCAGAUCGGAAGAGCACACGU	10.9 ± 1.1 nM
target 1 MT 5'PFS CUU 3'PFS UUA (mixed) RNA 1: CACCCGUGCAAAAAUGCAGGGGUCUAAAACUGAGCGGAUAACCUCUCUAUGG RNA 2: GGGAAUGGAUCCACAUCUACGAAUUCCUUCCAUAGAGAGGUUAUCCGCUCAUUAAGAUCGGAAGAGCACACGU	20.9 ± 4.25 nM
target 1 insG 3' of 16,insG 3' of 3 (mixed) RNA 1: CACCCGUGCAAAAAUGCAGGGGUCUAAAACUGAGCGGAUAACCUCUCUAUGG RNA 2: GGGAAUGGAUCCACAUCUACGAAUUCGUACCAUAGAGGAGGUUAUCCGCUGCACCGAGAUCGGAAGAGCACACGU	16.2 ± 1.1 nM
target 1 MT 5'PFS GUG 3'PFS UCA (mixed) RNA 1: CACCCGUGCAAAAAUGCAGGGGUCUAAAACUGAGCGGAUAACCUCUCUAUGG RNA 2: GGGAAUGGAUCCACAUCUACGAAUUCGUGCCAUAGAGAGGUUAUCCGCUCAUCAAGAUCGGAAGAGCACACGU	14.5 ± 1.45 nM
target 1 MT 5'PFS AGA 3'PFS UUA (mixed) RNA 1: CACCCGUGCAAAAAUGCAGGGGUCUAAAACUGAGCGGAUAACCUCUCUAUGG RNA 2: GGGAAUGGAUCCACAUCUACGAAUUCAGACCAUAGAGAGGUUAUCCGCUCAUUAAGAUCGGAAGAGCACACGU	42 ± 11 nM
